Data on four molecules can be found in patent US20260242735A1 (UNIVERSIT T BASEL, published 2026).

The chains are these.
B1: Refmab #4 (antibody, human IgG1, V domains shown)
VH: QVQLVQSGAEVKKPGESVKVSCKASGYTFTNYGMNWVKQAPGQGLEWMGWINTYTGEPTYADKFQGRVTMTTDTSTSTAYMEIRNLGGDDTAVYYCARWSWSDGYYVYFDYWGQGTSVTVSS
VL: DIVMTQSPDSLTVSLGERTTINCKSSQSVLDSSTNKNSLAWYQQKPGQPPKLLLSWASTRESGIPDRFSGSGSGTDFTLTIDSPQPEDSATYYCQQSAHFPITFGQGTRLEIK
notes: Tested in IgG format; human IgG1 Fc silent (PG-LALA)
B2: Refmab #2 (antibody, human IgG1, V domains shown)
VH: QVQLVQSGAEVKKPGSSVKVSCKASGGTFSDYAISWVRQAPGQGLEWMGRIIPILGVADYAQKFQGRVTITADKSTRTAYMELSSLRSEDTAVYYCARNWADAFDIWGQGTMVTVSS
VL: DIQLTQSPSSLSASVGDRVTITCRASQGISSVLAWYQQKPGKAPKLLIYDASSLESGVPSRFSGSGSGTDFTLTISSLQPEDFATYYCQQFDSSITFGQGTKLEIK
notes: as for B1
B3: Refmab #3 (antibody, human IgG1, V domains shown)
VH: QVQLVQSGAEVKKPGSSVKVSCKASGYTFTDYNMHWVRQAPGQGLEWIGYIYPYNGGTGYNQKFKSKATITADESTNTAYMELSSLRSEDTAVYYCARGRPAMDYWGQGTLVTVSS
VL: DIQMTQSPSSLSASVGDRVTITCRASESVDNYGISFMNWFQQKPGKAPKLLIYAASNQGSGVPSRFSGSGSGTDFTLTISSLQPDDFATYYCQQSKEVPWTFGQGTKVEIK
notes: as for B1
B4: Refmab #1 (antibody, human IgG1, V domains shown)
VH: EVQLVQSGAEVKKPGSSVKVSCKASGYTITDSNIHWVRQAPGQSLEWIGYIYPYNGGTDYNQKFKNRATLTVDNPTNTAYMELSSLRSEDTAFYYCVNGNPWLAYWGQGTLVTVSS
VL: DIQLTQSPSTLSASVGDRVTITCRASESLDNYGIRFLTWFQQKPGKAPKLLMYAASNQGSGVPSRFSGSGSGTEFTLTISSLQPDDFATYYCQQTKEVPWSFGQGTKVEVK
notes: Tested in IgG format; human IgG1 (Absolute Antibody hP67.6, Cat. No. Ab00283-10.0); also called hP67.6

human CD33 variant P48W, sequence (P20138 18-364 P48W limits assumed): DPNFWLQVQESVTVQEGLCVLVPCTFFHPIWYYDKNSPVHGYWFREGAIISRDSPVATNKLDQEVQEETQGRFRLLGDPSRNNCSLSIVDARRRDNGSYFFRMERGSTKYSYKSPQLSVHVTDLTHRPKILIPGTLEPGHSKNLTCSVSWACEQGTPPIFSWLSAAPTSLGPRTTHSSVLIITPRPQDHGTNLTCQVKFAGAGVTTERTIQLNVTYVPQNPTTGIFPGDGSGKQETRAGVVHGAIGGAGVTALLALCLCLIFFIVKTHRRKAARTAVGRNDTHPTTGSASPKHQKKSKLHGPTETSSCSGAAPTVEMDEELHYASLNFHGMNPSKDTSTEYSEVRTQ
human CD33 variant Y49Q, sequence (P20138 18-364 Y49Q limits assumed): as the sequence (P20138 18-364 P48W limits assumed) above, with W31P, Y32Q counted along it
human CD33 variant Y49L, sequence (P20138 18-364 Y49L limits assumed): as the sequence (P20138 18-364 P48W limits assumed) above, with W31P, Y32L counted along it
human CD33 variant M120I, sequence (P20138 18-364 M120I limits assumed): as the sequence (P20138 18-364 P48W limits assumed) above, with W31P, M103I counted along it
human CD33 variant I47L, sequence (P20138 18-364 I47L limits assumed): as the sequence (P20138 18-364 P48W limits assumed) above, with I30L, W31P counted along it
human CD33 variant R122E, sequence (P20138 18-364 R122E limits assumed): as the sequence (P20138 18-364 P48W limits assumed) above, with W31P, R105E counted along it
human CD33 variant P48Y, sequence (P20138 18-364 P48Y limits assumed): as the sequence (P20138 18-364 P48W limits assumed) above, with W31Y counted along it
human CD33 variant Y49H, sequence (P20138 18-364 Y49H limits assumed): as the sequence (P20138 18-364 P48W limits assumed) above, with W31P, Y32H counted along it
human CD33 variant Y50N, sequence (P20138 18-364 Y50N limits assumed): as the sequence (P20138 18-364 P48W limits assumed) above, with W31P, Y33N counted along it
human CD33 variant P48I, sequence (P20138 18-364 P48I limits assumed): as the sequence (P20138 18-364 P48W limits assumed) above, with W31I counted along it

One assay deals with human CD33 variant P48V (human, UniProt P20138 18-364). Description: flow cytometry, IgG on cells expressing the mutant. In general terms: In flow cytometry, cells or beads pass a laser one at a time.
human CD33 variant P48V, sequence (P20138 18-364 P48V limits assumed): as the sequence (P20138 18-364 P48W limits assumed) above, with W31V counted along it
Description: (§1) An alanine scan on human CD33 was performed to the determine the residues on CD33 that are involved in binding to the antibodies investigated. […] Briefly, a mutation library of CD33 was created by high-throughput, site-directed mutagenesis. Each residue was individually mutated to alanine, with alanine codons mutated to serine. The mutant library was arrayed in 384-well microplates and transiently transfected into HEK293-T. Following transfection, cells were incubated with the indicated antibodies (IgG or Fab) at concentrations pre-determined using an independent immunofluorescence titration curve on wild type CD33. […] Binding of each antibody to each mutant clone was determined in duplicates. For each point, background fluorescence was subtracted from the raw data, which were then normalized to antibody reactivity with wild type CD33.
(§2) Antibodies were screened for binding to the human CD33 variants in IgG format. […] For each mutation, background fluorescence was subtracted from the raw data, which were then normalized to antibody reactivity with wild-type CD33.
Regarding B1, the “Mean % WT Binding” value is 88.5 % of WT.
Same read-out and setting: for B2 the value was 79.5 % of WT; for B3, 113 % of WT.
On the same count and under the same terms, for B4 the value was 121 % of WT.

Another assay addresses human CD33 variant P48I (human, UniProt P20138 18-364). Kind of assay: flow cytometry, IgG on cells expressing the mutant.
Description: as §1, §2
Consider B1, for which the “Mean % WT Binding” value is 31.9 % of WT.
On the same count and under the same terms, for B2 the value was 81.9 % of WT.
On the same count and under the same terms, as for B3, the figure is 122 % of WT.
With B4, the “Mean % WT Binding” value was 107 % of WT.

The target in a further assay is human CD33 variant P48L (human, UniProt P20138 18-364). Description: flow cytometry, IgG on cells expressing the mutant.
human CD33 variant P48L, sequence (P20138 18-364 P48L limits assumed): as the sequence (P20138 18-364 P48W limits assumed) above, with W31L counted along it
Description: as §1, §2
As for B1, the “Mean % WT Binding” value was 1 % of WT.
The same measure, in the same setting: for B2 the value was 90.4 % of WT; for B3, 111 % of WT.
As to B4, the “Mean % WT Binding” value was 102 % of WT.

Another assay has as its target human CD33 variant P48Y (human, UniProt P20138 18-364). Description: flow cytometry, IgG on cells expressing the mutant.
Description: as §1, §2
Turning to B1, the “Mean % WT Binding” value is 0.6 % of WT.
Same read-out and setting: for B2 the value was 21.6 % of WT; for B3, 90.3 % of WT; for B4, 99.5 % of WT.

The next assay addresses human CD33 variant P48W (human, UniProt P20138 18-364). Description: flow cytometry, IgG on cells expressing the mutant.
Description: as §1, §2
Consider B1, for which the “Mean % WT Binding” value is 1.3 % of WT.
On the same count and under the same terms, for B2 the value was 68.8 % of WT; for B3, 96.4 % of WT; for B4, 95.6 % of WT.

Another assay has as its target human CD33 variant Y49Q (human, UniProt P20138 18-364). Kind of assay: flow cytometry, IgG on cells expressing the mutant.
Description: as §1, §2
Take B1: the “Mean % WT Binding” value is 91.9 % of WT.
On to B2, for which the “Mean % WT Binding” value is 17.4 % of WT.
Still for that read-out and setting: for B3 the value was 102 % of WT.
Same read-out and setting: as for B4, the figure is 105 % of WT.

Another assay concerns the target human CD33 variant Y49H (human, UniProt P20138 18-364). Kind of assay: flow cytometry, IgG on cells expressing the mutant.
Description: as §1, §2
For B1, the “Mean % WT Binding” value was 95.1 % of WT.
The same measure, in the same setting: as for B2, the figure is 17.2 % of WT; as for B3, 92.1 % of WT.
B4: the “Mean % WT Binding” value is 89.1 % of WT.

The next assay deals with human CD33 variant Y49R (human, UniProt P20138 18-364). Kind of assay: flow cytometry, IgG on cells expressing the mutant.
human CD33 variant Y49R, sequence (P20138 18-364 Y49R limits assumed): as the sequence (P20138 18-364 P48W limits assumed) above, with W31P, Y32R counted along it
Description: as §1, §2
On to B1, for which the “Mean % WT Binding” value was 55.7 % of WT.
Consider B2, for which the “Mean % WT Binding” value was 44.9 % of WT.
With B3, the “Mean % WT Binding” value was 79 % of WT.
In the case of B4, the “Mean % WT Binding” value is 87.1 % of WT.

Another assay addresses human CD33 variant Y49L (human, UniProt P20138 18-364). Kind of assay: flow cytometry, IgG on cells expressing the mutant.
Description: as §1, §2
Turning to B1, the “Mean % WT Binding” value is 110 % of WT.
For the molecule B2, the “Mean % WT Binding” value is 108 % of WT.
For the molecule B3, the “Mean % WT Binding” value was 93.8 % of WT.
Still for that read-out and setting: for B4 the value was 100 % of WT.

A further assay addresses human CD33 variant Y50N (human, UniProt P20138 18-364). Description: flow cytometry, IgG on cells expressing the mutant.
Description: as §1, §2
As to B1, the “Mean % WT Binding” value was 2.3 % of WT.
Same read-out and setting: as for B2, the figure is 108 % of WT.
On the same count and under the same terms, as for B3, the figure is 92.4 % of WT; as for B4, 96.3 % of WT.

For a further assay, the target named is human CD33 variant Y50D (human, UniProt P20138 18-364). Description: flow cytometry, IgG on cells expressing the mutant.
human CD33 variant Y50D, sequence (P20138 18-364 Y50D limits assumed): as the sequence (P20138 18-364 P48W limits assumed) above, with W31P, Y33D counted along it
Description: as §1, §2
For the molecule B1, the “Mean % WT Binding” value was 0.9 % of WT.
The same measure, in the same setting: for B2 the value was 112 % of WT; for B3, 100 % of WT; for B4, 115 % of WT.

The target in another assay is human CD33 variant D51Y (human, UniProt P20138 18-364). Kind of assay: flow cytometry, IgG on cells expressing the mutant.
human CD33 variant D51Y, sequence (P20138 18-364 D51Y limits assumed): as the sequence (P20138 18-364 P48W limits assumed) above, with W31P, D34Y counted along it
Description: as §1, §2
B1: the “Mean % WT Binding” value is 61.9 % of WT.
Consider B2, for which the “Mean % WT Binding” value is 69.8 % of WT.
On to B3, for which the “Mean % WT Binding” value is 87.2 % of WT.
Same read-out and setting: as for B4, the figure is 94.4 % of WT.

A further assay deals with human CD33 variant K52G (human, UniProt P20138 18-364). Description: flow cytometry, IgG on cells expressing the mutant.
human CD33 variant K52G, sequence (P20138 18-364 K52G limits assumed): as the sequence (P20138 18-364 P48W limits assumed) above, with W31P, K35G counted along it
Description: as §1, §2
On to B1, for which the “Mean % WT Binding” value is 69.5 % of WT.
Turning to B2, the “Mean % WT Binding” value is 25.4 % of WT.
On the same count and under the same terms, for B3 the value was 106 % of WT.
In the case of B4, the “Mean % WT Binding” value was 98.8 % of WT.

The target in another assay is human CD33 variant K52L (human, UniProt P20138 18-364). Description: flow cytometry, IgG on cells expressing the mutant.
human CD33 variant K52L, sequence (P20138 18-364 K52L limits assumed): as the sequence (P20138 18-364 P48W limits assumed) above, with W31P, K35L counted along it
Description: as §1, §2
Take B1: the “Mean % WT Binding” value was 88.1 % of WT.
The same measure, in the same setting: for B2 the value was 74.8 % of WT.
For the molecule B3, the “Mean % WT Binding” value is 94.9 % of WT.
Consider B4, for which the “Mean % WT Binding” value is 97.6 % of WT.

The target in another assay is human CD33 variant K52F (human, UniProt P20138 18-364). Kind of assay: flow cytometry, IgG on cells expressing the mutant.
human CD33 variant K52F, sequence (P20138 18-364 K52F limits assumed): as the sequence (P20138 18-364 P48W limits assumed) above, with W31P, K35F counted along it
Description: as §1, §2
B1: the “Mean % WT Binding” value is 3.5 % of WT.
In the case of B2, the “Mean % WT Binding” value was 3.9 % of WT.
In the case of B3, the “Mean % WT Binding” value is 6 % of WT.
On the same count and under the same terms, as for B4, the figure is 4.5 % of WT.

Another assay concerns the target human CD33 variant I47L (human, UniProt P20138 18-364). Description: flow cytometry, IgG on cells expressing the mutant.
Description: as §1, §2
Regarding B1, the “Mean % WT Binding” value was 88.5 % of WT.
On to B2, for which the “Mean % WT Binding” value was 2.8 % of WT.
Same read-out and setting: as for B3, the figure is 102 % of WT.
Same read-out and setting: for B4 the value was 112 % of WT.

The target in a further assay is human CD33 variant K52D (human, UniProt P20138 18-364). Kind of assay: flow cytometry, IgG on cells expressing the mutant.
human CD33 variant K52D, sequence (P20138 18-364 K52D limits assumed): as the sequence (P20138 18-364 P48W limits assumed) above, with W31P, K35D counted along it
Description: as §1, §2
Take B1: the “Mean % WT Binding” value was 9.4 % of WT.
On the same count and under the same terms, as for B2, the figure is 5.3 % of WT; as for B3, 101 % of WT.
With B4, the “Mean % WT Binding” value is 101 % of WT.

In the next assay the target is human CD33 variant K52H (human, UniProt P20138 18-364). Kind of assay: flow cytometry, IgG on cells expressing the mutant.
human CD33 variant K52H, sequence (P20138 18-364 K52H limits assumed): as the sequence (P20138 18-364 P48W limits assumed) above, with W31P, K35H counted along it
Description: as §1, §2
As to B1, the “Mean % WT Binding” value is 75.1 % of WT.
Turning to B2, the “Mean % WT Binding” value was 84.7 % of WT.
Same read-out and setting: as for B3, the figure is 101 % of WT.
Same read-out and setting: for B4 the value was 94.2 % of WT.

In a further assay the target is human CD33 variant K52I (human, UniProt P20138 18-364). Kind of assay: flow cytometry, IgG on cells expressing the mutant.
human CD33 variant K52I, sequence (P20138 18-364 K52I limits assumed): as the sequence (P20138 18-364 P48W limits assumed) above, with W31P, K35I counted along it
Description: as §1, §2
For the molecule B1, the “Mean % WT Binding” value is 61.9 % of WT.
As for B2, the “Mean % WT Binding” value is 86.8 % of WT.
The same measure, in the same setting: for B3 the value was 88.7 % of WT.
As to B4, the “Mean % WT Binding” value was 89.2 % of WT.

A further assay addresses human CD33 variant M120I (human, UniProt P20138 18-364). Kind of assay: flow cytometry, IgG on cells expressing the mutant.
Description: as §1, §2
Regarding B1, the “Mean % WT Binding” value is 101 % of WT.
Regarding B2, the “Mean % WT Binding” value is 95.7 % of WT.
Still for that read-out and setting: for B3 the value was 81.6 % of WT; for B4, 96.6 % of WT.

In the next assay the target is human CD33 variant R122F (human, UniProt P20138 18-364). Description: flow cytometry, IgG on cells expressing the mutant.
human CD33 variant R122F, sequence (P20138 18-364 R122F limits assumed): as the sequence (P20138 18-364 P48W limits assumed) above, with W31P, R105F counted along it
Description: as §1, §2
In the case of B1, the “Mean % WT Binding” value is 58.1 % of WT.
In the case of B2, the “Mean % WT Binding” value is 1.2 % of WT.
For the molecule B3, the “Mean % WT Binding” value was 106 % of WT.
On the same count and under the same terms, as for B4, the figure is 110 % of WT.

A further assay has as its target human CD33 variant R122E (human, UniProt P20138 18-364). Description: flow cytometry, IgG on cells expressing the mutant.
Description: as §1, §2
Regarding B1, the “Mean % WT Binding” value is 79.2 % of WT.
On the same count and under the same terms, for B2 the value was 0.6 % of WT; for B3, 101 % of WT.
In the case of B4, the “Mean % WT Binding” value was 110 % of WT.

The target of a further assay is human CD33 variant I47Y (human, UniProt P20138 18-364). Kind of assay: flow cytometry, IgG on cells expressing the mutant.
human CD33 variant I47Y, sequence (P20138 18-364 I47Y limits assumed): as the sequence (P20138 18-364 P48W limits assumed) above, with I30Y, W31P counted along it
Description: as §1, §2
As for B1, the “Mean % WT Binding” value is 96 % of WT.
In the case of B2, the “Mean % WT Binding” value is 1.4 % of WT.
As to B3, the “Mean % WT Binding” value is 109 % of WT.
In the case of B4, the “Mean % WT Binding” value was 110 % of WT.

Another assay deals with human CD33 variant I47W (human, UniProt P20138 18-364). Kind of assay: flow cytometry, IgG on cells expressing the mutant.
human CD33 variant I47W, sequence (P20138 18-364 I47W limits assumed): as the sequence (P20138 18-364 P48W limits assumed) above, with I30W, W31P counted along it
Description: as §1, §2
As for B1, the “Mean % WT Binding” value is 86.8 % of WT.
The same measure, in the same setting: for B2 the value was 0.6 % of WT; for B3, 112 % of WT; for B4, 111 % of WT.
